Article PMC4457860, “In Vitro Interaction of the Housekeeping SecA1 with the Accessory SecA2 Protein of Mycobacterium tuberculosis” (PLoS ONE, 2015)

Tests used:
[1] = molecular target: Mycobacterium tuberculosis SecA1(S945C) labeled with Cy5 (Mycobacterium tuberculosis strain H37Rv) (UniProt P9WGP5); test: MST; as the low salt experiment, but at moderate salt concentration (150 mM KCl); dimer to monomers
[2] = molecular target: Mycobacterium tuberculosis SecA2(S802C) labeled with Cy5 (Mycobacterium tuberculosis strain H37Rv) (UniProt P9WGP3); test: MST; Monolith NT.115; unlabeled protein (1 nM to 5 μM) titrated into 25 nM Cy5-labeled protein, mixed in 300 mM KCl, then diluted into low salt buffer (25 mM HEPES-KOH pH 7.5, 30 mM KCl, 2 mM MgCl2, 50 mM arginine); Hill fit, apparent Kd; dimer to monomers
[3] = molecular target: Mycobacterium tuberculosis SecA1(S945C) labeled with Cy5 (Mycobacterium tuberculosis strain H37Rv) (UniProt P9WGP5); test: as above
[4] = molecular target: Mycobacterium tuberculosis SecA1(S945C) labeled with Cy5, P9WGP5; test: fluorescence cross-correlation spectroscopy (FCCS); SecA1-Cy5 and SecA2-AF488 mixed 1:1 in 300 mM KCl, exchanged on NAP5 into 25 mM HEPES-KOH pH 7.5, 30 mM KCl, 2 mM MgCl2, 50 mM arginine; 10 min at room temperature; LSM710 confocal microscope; details: other: fluorescence cross-correlation spectroscopy (FCCS)
[5] = molecular target: T1, Mycobacterium tuberculosis SecA2(S802C) labeled with Cy5 (Mycobacterium tuberculosis strain H37Rv, UniProt P9WGP3 31-808, S802C, Cy5 (Cy5-maleimide label)); test: MST; as the low salt experiment, but at moderate salt concentration (150 mM KCl); dimer to monomers; details: both partners purified
T1 construct: also called SecA2-Cy5; PIP154
T1 sequence: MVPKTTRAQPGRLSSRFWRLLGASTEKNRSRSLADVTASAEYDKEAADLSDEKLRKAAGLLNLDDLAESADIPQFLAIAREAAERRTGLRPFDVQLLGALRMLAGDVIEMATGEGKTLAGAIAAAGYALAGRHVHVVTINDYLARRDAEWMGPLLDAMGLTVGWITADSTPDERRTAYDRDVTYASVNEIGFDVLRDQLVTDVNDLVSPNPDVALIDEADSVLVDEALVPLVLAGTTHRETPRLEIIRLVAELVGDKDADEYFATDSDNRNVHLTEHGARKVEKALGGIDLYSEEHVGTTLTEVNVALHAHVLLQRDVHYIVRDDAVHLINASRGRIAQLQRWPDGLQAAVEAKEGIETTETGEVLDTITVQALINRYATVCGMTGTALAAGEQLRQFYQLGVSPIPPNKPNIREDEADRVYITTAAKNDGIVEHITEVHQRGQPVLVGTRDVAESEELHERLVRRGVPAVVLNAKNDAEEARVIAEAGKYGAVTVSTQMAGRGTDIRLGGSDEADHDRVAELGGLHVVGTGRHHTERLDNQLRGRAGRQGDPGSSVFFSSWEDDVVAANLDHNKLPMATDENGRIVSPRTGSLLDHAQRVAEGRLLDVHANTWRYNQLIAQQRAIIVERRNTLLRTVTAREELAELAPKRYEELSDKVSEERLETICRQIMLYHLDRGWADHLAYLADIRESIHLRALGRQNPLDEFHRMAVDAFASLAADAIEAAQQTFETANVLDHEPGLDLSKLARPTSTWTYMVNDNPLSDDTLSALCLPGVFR

[6] = molecular target: Mycobacterium tuberculosis SecA1(S945C) labeled with Cy5 (Mycobacterium tuberculosis strain H37Rv) (UniProt P9WGP5); test: MST; Monolith NT.115; unlabeled protein (1 nM to 5 μM) titrated into 25 nM Cy5-labeled protein, mixed in 300 mM KCl, then diluted into low salt buffer (25 mM HEPES-KOH pH 7.5, 30 mM KCl, 2 mM MgCl2, 50 mM arginine); Hill fit, apparent Kd; dimer to monomers; remark: listed apart in the source
[7] = molecular target: T1, Mycobacterium tuberculosis SecA2(S802C) …; test: as above; details: both partners purified

“Mycobacterium tuberculosis SecA1 (unlabeled) (from UniProt P9WGP5 1-949) (natural protein)” showed a Kd [1] of 0.298 µM, a Kd [2] of 0.438 µM and a Kd [3] of 0.065 µM.

B1: Mycobacterium tuberculosis SecA2(S802C) labeled with AlexaFluor 488 (protein)
chain: MVPKTTRAQPGRLSSRFWRLLGASTEKNRSRSLADVTASAEYDKEAADLSDEKLRKAAGLLNLDDLAESADIPQFLAIAREAAERRTGLRPFDVQLLGALRMLAGDVIEMATGEGKTLAGAIAAAGYALAGRHVHVVTINDYLARRDAEWMGPLLDAMGLTVGWITADSTPDERRTAYDRDVTYASVNEIGFDVLRDQLVTDVNDLVSPNPDVALIDEADSVLVDEALVPLVLAGTTHRETPRLEIIRLVAELVGDKDADEYFATDSDNRNVHLTEHGARKVEKALGGIDLYSEEHVGTTLTEVNVALHAHVLLQRDVHYIVRDDAVHLINASRGRIAQLQRWPDGLQAAVEAKEGIETTETGEVLDTITVQALINRYATVCGMTGTALAAGEQLRQFYQLGVSPIPPNKPNIREDEADRVYITTAAKNDGIVEHITEVHQRGQPVLVGTRDVAESEELHERLVRRGVPAVVLNAKNDAEEARVIAEAGKYGAVTVSTQMAGRGTDIRLGGSDEADHDRVAELGGLHVVGTGRHHTERLDNQLRGRAGRQGDPGSSVFFSSWEDDVVAANLDHNKLPMATDENGRIVSPRTGSLLDHAQRVAEGRLLDVHANTWRYNQLIAQQRAIIVERRNTLLRTVTAREELAELAPKRYEELSDKVSEERLETICRQIMLYHLDRGWADHLAYLADIRESIHLRALGRQNPLDEFHRMAVDAFASLAADAIEAAQQTFETANVLDHEPGLDLSKLARPTSTWTYMVNDNPLSDDTLSALCLPGVFR
In the case of B1, the “percent of all proteins co-migrating as heterodimers” value [4] is reported as 12% of all proteins co-migrated as heterodimers.

B2: Mycobacterium tuberculosis SecA2 (unlabeled) (natural protein)
chain: MVPKTTRAQPGRLSSRFWRLLGASTEKNRSRSLADVTASAEYDKEAADLSDEKLRKAAGLLNLDDLAESADIPQFLAIAREAAERRTGLRPFDVQLLGALRMLAGDVIEMATGEGKTLAGAIAAAGYALAGRHVHVVTINDYLARRDAEWMGPLLDAMGLTVGWITADSTPDERRTAYDRDVTYASVNEIGFDVLRDQLVTDVNDLVSPNPDVALIDEADSVLVDEALVPLVLAGTTHRETPRLEIIRLVAELVGDKDADEYFATDSDNRNVHLTEHGARKVEKALGGIDLYSEEHVGTTLTEVNVALHAHVLLQRDVHYIVRDDAVHLINASRGRIAQLQRWPDGLQAAVEAKEGIETTETGEVLDTITVQALINRYATVCGMTGTALAAGEQLRQFYQLGVSPIPPNKPNIREDEADRVYITTAAKNDGIVEHITEVHQRGQPVLVGTRDVAESEELHERLVRRGVPAVVLNAKNDAEEARVIAEAGKYGAVTVSTQMAGRGTDIRLGGSDEADHDRVAELGGLHVVGTGRHHTERLDNQLRGRAGRQGDPGSSVFFSSWEDDVVAANLDHNKLPMATDENGRIVSPRTGSLLDHAQRVAEGRLLDVHANTWRYNQLIAQQRAIIVERRNTLLRTVTAREELAELAPKRYEELSDKVSEERLETICRQIMLYHLDRGWADHLAYLADIRESIHLRALGRQNPLDEFHRMAVDAFASLAADAIEAAQQTFETANVLDHEPGLDLSKLARPTSTWTYMVNDNPLSDDTLSALSLPGVFR
notes: No tag; molecular mass 85 kDa on SDS-PAGE; also called PIP152
Molecule B2 has a Kd [5] of 0.618 ± 0.0365 µM, a Kd [6] of 0.378 µM and a Kd [7] of 0.161 ± 0.0062 µM.
